Source: the supplement of paper PMC11316812
± gives the standard deviation of the averaged measurements.

What was measured:
[1] = tested on: hTERT-HMEC; experiment: percentage of EdU-negative (G0-arrested) nuclei per well, 72 h; higher = more G0 arrest; conditions: reference: sequence is the full UniProt precursor, the tested protein was the secreted form or ectodomain
[2] = tested on: MCF7; experiment: as above; conditions: reference: sequence is the full UniProt precursor, the tested protein was the secreted form or ectodomain
[3] = protein concentration 0.0225 µM
[4] = protein concentration 0.010165 µM
[5] = protein concentration 0.10165 µM
[6] = protein concentration 0.0065 µM
[7] = protein concentration 0.0194286 µM
[8] = protein concentration 0.194286 µM
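Also: secreted proteins added to cultured cells, EdU pulse at the end, nuclei found by Hoechst imaging, EdU status from nuclear versus surrounding ring intensity ratio, PBS as neutral control.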

Sequence	percentage of EdU-negative [1, 3] [%]	percentage of EdU-negative ([1]; protein concentration 0.225 µM) [%]	percentage of EdU-negative [2, 3] [%]	percentage of EdU-negative ([2]; protein concentration 0.225 µM) [%]	further results
MEPFTNDRLQLPRNMIENSMFEEEPDVVDLAKEPCLHPLEPDEVEYEPRGSRLLVRGLGEHEMEEDEEDYESSAKLLGMSFMNRSSGLRNSATGYRQSPDGACSVPSARTMVVCAFVIVVAVSVIMVIYLLPRCTFTKEGCHKKNQSIGLIQPFATNGKLFPWAQIRLPTAVVPLRYELSLHPNLTSMTFRGSVTISVQALQVTWNIILHSTGHNISRVTFMSAVSSQEKQAEILEYAYHGQIAIVAPEALLAGHNYTLKIEYSANISSSYYGFYGFSYTDESNEKKYFAATQFEPLAARSAFPCFDEPAFKATFIIKIIRDEQYTALSNMPKKSSVVLDDGLVQDEFSESVKMSTYLVAFIVGEMKNLSQDVNGTLVSIYAVPEKIGQVHYALETTVKLLEFFQNYFEIQYPLKKLDLVAIPDFEAGAMENWGLLTFREETLLYDSNTSSMADRKLVTKIIAHELAHQWFGNLVTMKWWNDLWLNEGFATFMEYFSLEKIFKELSSYEDFLDARFKTMKKDSLNSSHPISSSVQSSEQIEEMFDSLSYFKGSSLLLMLKTYLSEDVFQHAVVLYLHNHSYASIQSDDLWDSFNEVTNQTLDVKRMMKTWTLQKGFPLVTVQKKGKELFIQQERFFLNMKPEIQPSDTSYLWHIPLSYVTEGRNYSKYQSVSLLDKKSGVINLTEEVLWVKVNINMNGYYIVHYADDDWEALIHQLKINPYVLSDKDRANLINNIFELAGLGKVPLKRAFDLINYLGNENHTAPITEALFQTDLIYNLLEKLGYMDLASRLVTRVFKLLQNQIQQQTWTDEGTPSMRELRSALLEFACTHNLGNCSTTAMKLFDDWMASNGTQSLPTDVMTTVFKVGAKTDKGWSFLLGKYISIGSEAEKNKILEALASSEDVRKLYWLMKSSLNGDNFRTQKLSFIIRTVGRHFPGHLLAWDFVKENWNKLVQKFPLGSYTIQNIVAGSTYLFSTKTHLSEVQAFFENQSEATFRLRCVQEALEVIQLNIQWMEKNLKSLTWWL [Q9UIQ6]	4.48 ± 0.24	11.1 ± 0.58	26.9 ± 1.8	29.26 ± 0.17	
MLSGRLVLGLVSMAGRVCLCQGSAGSGAIGPVEAAIRTKLEEALSPEVLELRNESGGHAVPPGSETHFRVAVVSSRFEGLSPLQRHRLVHAALAEELGGPVHALAIQARTPAQWRENSQLDTSPPCLGGNKKTLGTP [Q9Y3E2]	5.42 ± 0.18	5.59 ± 0.52	28 ± 1.9	27.3 ± 2.5	
MRLPRRAALGLLPLLLLLPPAPEAAKKPTPCHRCRGLVDKFNQGMVDTAKKNFGGGNTAWEEKTLSKYESSEIRLLEILEGLCESSDFECNQMLEAQEEHLEAWWLQLKSEYPDLFEWFCVKTLKVCCSPGTYGPDCLACQGGSQRPCSGNGHCSGDGSRQGDGSCRCHMGYQGPLCTDCMDGYFSSLRNETHSICTACDESCKTCSGLTNRDCGECEVGWVLDEGACVDVDECAAEPPPCSAAQFCKNANGSYTCEECDSSCVGCTGEGPGNCKECISGYAREHGQCADVDECSLAEKTCVRKNENCYNTPGSYVCVCPDGFEETEDACVPPAEAEATEGESPTQLPSREDL [Q6UXH1]	4.4 ± 0.85	6.12 ± 0.13	23.9 ± 1.1	26 ± 1.1	
MLGARLRLWVCALCSVCSMSVLRAYPNASPLLGSSWGGLIHLYTATARNSYHLQIHKNGHVDGAPHQTIYSALMIRSEDAGFVVITGVMSRRYLCMDFRGNIFGSHYFDPENCRFQHQTLENGYDVYHSPQYHFLVSLGRAKRAFLPGMNPPPYSQFLSRRNEIPLIHFNTPIPRRHTRSAEDDSERDPLNVLKPRARMTPAPASCSQELPSAEDNSPMASDPLGVVRGGRVNTHAGGTGPEGCRPFAKFI [Q9GZV9]					percentage of EdU-negative [1, 4]: 4.81 ± 0.08%; percentage of EdU-negative [1, 5]: 12.96 ± 0.081%; percentage of EdU-negative [2, 4]: 24 ± 0.7%; percentage of EdU-negative [2, 5]: 27.2 ± 0.45%
MAVVPLLLLGGLWSAVGASSLGVVTCGSVVKLLNTRHNVRLHSHDVRYGSGSGQQSVTGVTSVDDSNSYWRIRGKSATVCERGTPIKCGQPIRLTHVNTGRNLHSHHFTSPLSGNQEVSAFGEEGEGDYLDDWTVLCNGPYWVRDGEVRFKHSSTEVLLSVTGEQYGRPISGQKEVHGMAQPSQNNYWKAMEGIFMKPSELLKAEAHHAEL					percentage of EdU-negative [1, 6]: 5.43 ± 0.74%; percentage of EdU-negative ([1]; protein concentration 0.065 µM): 7.72 ± 0.45%; percentage of EdU-negative [2, 6]: 24.7 ± 0.39%; percentage of EdU-negative ([2]; protein concentration 0.065 µM): 25.8 ± 1.1%
MGTKAQVERKLLCLFILAILLCSLALGSVTVHSSEPEVRIPENNPVKLSCAYSGFSSPRVEWKFDQGDTTRLVCYNNKITASYEDRVTFLPTGITFKSVTREDTGTYTCMVSEEGGNSYGEVKVKLIVLVPPSKPTVNIPSSATIGNRAVLTCSEQDGSPPSEYTWFKDGIVMPTNPKSTRAFSNSSYVLNPTTGELVFDPLSASDTGEYSCEARNGYGTPMTSNAVRMEAVERNVGVIVAAVLVTLILLGILVFGIWFAYSRGHFDRTKKGTSSKKVIYSQPSARSEGEFKQTSSFLV [Q9Y624]	4.79 ± 0.22	5.1 ± 1.2	24.4 ± 0.49	25.6 ± 5.5	
MGVAARPPALRHWFSHSIPLAIFALLLLYLSVRSLGARSGCGPRAQPCVPGETAPFQVRQESGTLEAPERKQPPCLGPRGMLGRMMRRFHASLKPEGDVGLSPYLAGWRALVEFLTPLGSVFAFATREAFTKVTDLEARVHGPDAEHYWSLVAMAAWERRAGLLEQPGAAPRDPTRSSGSRTLLLLHRALRWSQLCLHRVATGALGGPDAGVQCSDAYRAALGPHHPWLVRQTARLAFLAFPGRRRLLELACPGATEAEARAALVRAAGTLEDVYNRTQSLLAERGLLQLA [A6NH11]					percentage of EdU-negative [1, 7]: 5.02 ± 1.8%; percentage of EdU-negative [1, 8]: 5.53 ± 0.54%; percentage of EdU-negative [2, 7]: 23.4 ± 0.51%; percentage of EdU-negative [2, 8]: 25.5 ± 2.7%
